Test [1] deals with T1, menin^M327I bound to FLSN-MLL1^4-43 (Homo sapiens, UniProt O00255, M322I).
T1 construct: The gene encoding full-length human menin was cloned into a pET32a expression vector; thioredoxin-His6 (cleaved yes); made in house; host or cells: E. coli BL21(DE3); probe peptide from GenScript
T1 sequence (O00255 1-610 M322I): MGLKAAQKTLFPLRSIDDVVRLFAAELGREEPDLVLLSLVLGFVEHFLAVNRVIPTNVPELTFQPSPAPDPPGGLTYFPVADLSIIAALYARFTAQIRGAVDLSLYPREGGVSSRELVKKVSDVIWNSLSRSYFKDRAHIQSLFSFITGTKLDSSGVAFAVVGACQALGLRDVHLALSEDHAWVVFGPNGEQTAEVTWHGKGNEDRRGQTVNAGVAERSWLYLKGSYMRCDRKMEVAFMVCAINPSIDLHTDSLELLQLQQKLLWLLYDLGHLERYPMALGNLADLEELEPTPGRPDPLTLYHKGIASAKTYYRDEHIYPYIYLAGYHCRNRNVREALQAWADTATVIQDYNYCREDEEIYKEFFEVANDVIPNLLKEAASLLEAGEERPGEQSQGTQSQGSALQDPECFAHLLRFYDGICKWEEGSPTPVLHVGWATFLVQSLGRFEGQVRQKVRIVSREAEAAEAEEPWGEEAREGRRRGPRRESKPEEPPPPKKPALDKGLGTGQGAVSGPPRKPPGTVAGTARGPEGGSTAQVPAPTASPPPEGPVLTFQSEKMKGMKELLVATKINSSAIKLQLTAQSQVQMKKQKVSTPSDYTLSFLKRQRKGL
Briefly: FP competition, displacement of FLSN-MLL1^4-43 from menin^M327I. Format: binding. On the procedure:
(§1) FP competition experiments used FLSN-MLL1^4-43 at 4 nM and menin at 4 nM against varying concentrations of unlabeled MLL1 peptides in FP buffer for IC50 determination. Protein-peptide complexes were incubated for 1 h before unlabeled peptide competitors were added to ensure complete binding. Unlabeled peptide competitors were incubated with the protein-peptide complexes for 3 h before measurement using the PHERAstar microplate reader ([25]). Experiments with Revumenib were run with the same steps and conditions but used 5% DMSO in the final solution. Kd and IC50 values were calculated using GraphPad Prism 10 by plotting mP values measured for each protein/MLL1 peptide or Revumenib as a function of protein/MLL1 peptide (or Revumenib) concentration ([25]). All FP binding and competition experiments were run in triplicate.

Test [2] concerns the target T2, menin^G331D-FLSN-MLL1^4-43 (Homo sapiens, UniProt O00255, G326D).
T2 construct: The gene encoding full-length human menin was cloned into a pET32a expression vector; thioredoxin-His6 (cleaved yes); made in house; host or cells: E. coli BL21(DE3); probe peptide from GenScript
T2 sequence (O00255 1-610 G326D): T1 sequence (O00255 1-610 M322I) with I322M, G326D
Briefly: FP competition, displacement of FLSN-MLL1^4-43 from menin^G331D. Format: binding. The protocol:
To better understand the mechanism of MLL1 binding with menin mutants, we performed FP competition experiments using FLSN-MLL1^4-43 as a fluorescent probe for competitive displacement by MLL1 peptides ([25]). First, we tested competition with MLL1^160 and found very similar IC50 values for wild-type menin and the three mutants M327I, T349M, and G331R, ranging between 4.1 and 8 nM (Fig. 3, A and B). […] We have hypothesized that the lack of competition with MLL1 for the menin^G331D mutant might result from a much slower dissociation rate of the menin^G331D–MLL1 complex, and to evaluate this we performed time-dependent competition experiments with MLL1^160 and MLL1^46. Standard conditions in the FP assay include 3 h incubations of the menin-FLSN-MLL1^4-43 complex with competitors.
as §1

The target in a further test is T3, menin^G331D (Homo sapiens, UniProt O00255, G326D).
T3 construct: The gene encoding full-length human menin was cloned into a pET32a expression vector; thioredoxin-His6 (cleaved yes); made in house; host or cells: E. coli BL21(DE3)
T3 sequence (O00255 1-610 G326D): T1 sequence (O00255 1-610 M322I) with I322M, G326D
Briefly: ITC binding of MLL1 fragments to menin^G331D. On the procedure: Menin and MLL1 fragments were dialyzed at 4 °C against a 50 mM sodium phosphate pH 7.5, 50 mM NaCl, 1 mM TCEP buffer, and degassed prior to measurement. The titrations were performed using the VP-ITC system (MicroCal) at 25 °C. The calorimetric cell, which contained menin (concentrations in the 5–10 μM range), was titrated with the MLL1^160 and MLL1^4-15 derived peptides (concentration range 40–100 μM) injected in 10-μL aliquots. Data was analyzed using Origin 7.0 (OriginLab) to obtain Kd, stoichiometry, entropy, and enthalpy ([2]). Experiments with WT, M327I, T349M, and G331R menin and MLL1^160 or MLL1^4-15 were run in duplicate. Experiments with G331D menin and MLL1^160 were run in duplicate while experiments with G331D and MLL1^4-15 were run in quadruplicate.

[3] abbreviates: FP competition with MLL1 fragments, 3 h incubation, N = 3, Fig. 3B, read-out: M327I IC50.
[4] abbreviates: FP competition with MLL1 fragments, 3 h incubation, N = 3, Fig. 3B, read-out: G331D IC50.
Setting [5] is: time-dependent competition, 3 h, Fig. 3D, read-out: 3h IC50.
The mark [6] stands for this setting: time-dependent competition, 24 h, Fig. 3D, read-out: 24h IC50.
The mark [7] stands for this setting: time-dependent competition, 48 h, Fig. 3D, read-out: 48h IC50.
The mark [8] stands for this setting: time-dependent competition, 72 h, Fig. 3D, read-out: 72h IC50.

A word on the IC50: it is the concentration needed to halve the response being measured. Usually Kd stands for the equilibrium constant for the complex coming apart.

Where a chain is given by its changes, count along the chain named. Read-outs that look alike come from different tables or passages of the source.

In the case of `CCN(C(=O)c1cc(F)ccc1Oc1cncnc1N1CC2(CCN(C[C@H]3CC[C@H](NS(=O)(=O)CC)CC3)CC2)C1)C(C)C` [Revumenib, reference compound], in test [1] (FP competition, 5% DMSO, 3 h, N = 3, Fig. 4A, read-out: IC50 (nM), menin variant M327I), the IC50 worked out at 535 ± 37 nM. In addition, the “activity for the G331D variant” value in test [2] (FP competition, 5% DMSO) is given as “no activity”.

As for “MLL1^46: recombinant MLL1 fragment spanning amino acids 1–46, containing MBM1 and MBM2 (MAHSARWRFPARPGTTGGGGGGGRRGLGGAPRQRVPALLLPPGPPV; The printed 'Cys2' is Cys5 in the entry (peptide S4-A5-R6); Trx-His6 tag cl)”, the IC50 in test [1] (setting [3]) is 1.7 ± 0.7 nM; in test [2] (setting [4]) it was above 200 nM; in test [2] (setting [5]), above 200 nM; in test [2] (setting [6]), 0.87 ± 0.8 nM; in test [2] (setting [7]), 1.1 ± 0.6 nM; in test [2] (setting [8]) it was 1 ± 0.2 nM.

B1: MLL1^160: N-terminal 160 amino acids of human MLL1, Cys2 mutated to alanine, recombinant (protein)
chain: MAHSARWRFPARPGTTGGGGGGGRRGLGGAPRQRVPALLLPPGPPVGGGGPGAPPSPPAVAAAAAAAGSSGAGVPGGAAAASAASSSSASSSSSSSSSASSGPALLRVGPGFDAALQVSAAIGTNLRRFRAVFGESGGGGGSGEDEQFLGFGSDEEVRVR
modifications: The printed 'Cys2' is the single N-terminal cysteine, Cys5 in the entry (peptide S4-A5-R6); Trx-His6 tag cleaved
Consider B1, for which the Kd with menin^G331D (ITC summary Fig. 1B, * n = 2, ^ n = 4, read-out: G331D Kd (nM), ITC) was found to be 1.4 ± 0.7 nM; with menin^G331D (ITC, representative binding isotherm Fig. 1A, 25 °C, read-out: Kd), 1.4 ± 0.7 nM. In addition, the IC50 was 5.1 ± 0.2 nM in test [1] (setting [3]); 4.7 to 10.9 nM in test [2] (24 to 72 h incubations, read-out: IC50 values, range over time points); above 200 nM in test [2] (setting [4]); above 200 nM in test [2] (setting [5]); 4.73 ± 0.8 nM in test [2] (setting [6]); 10.9 ± 6.2 nM in test [2] (setting [7]). Further, the IC50 in test [2] (setting [8]) is 7.9 ± 0.5 nM.

These data come from PMC11490872, “Drug-resistant menin variants retain high binding affinity and interactions with MLL1” (The Journal of Biological Chemistry, 2024).
